Measured values taken from US20040234498A1 (Genentech, published 2004).

Key:
[1] = biological target: T1, human GITR (hGITR), full length, on cells (human, UniProt Q9Y5U5 26-241); assay: cell-based or functional assay
T1 sequence (looked up): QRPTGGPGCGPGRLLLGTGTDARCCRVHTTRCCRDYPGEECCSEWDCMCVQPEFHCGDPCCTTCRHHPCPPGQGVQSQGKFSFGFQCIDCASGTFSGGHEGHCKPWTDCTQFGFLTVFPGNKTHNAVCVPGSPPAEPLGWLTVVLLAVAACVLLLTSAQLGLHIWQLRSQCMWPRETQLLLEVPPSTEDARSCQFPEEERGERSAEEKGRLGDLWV

[2] = biological target: T2, CD95 immunoadhesin (CD95 ECD fused to hinge and Fc portion of human IgG) (human, UniProt P25445 26-173, limits assumed); assay: co-precipitation with protein A-sepharose, SDS-PAGE, autoradiography
T2 construct: extracellular domain; also called Fas-IgG; Fas/Apo1; not shown: hinge and Fc portion of human IgG, as described for TNFR1 in Ashkenazi et al. 1991
T2 sequence (looked up): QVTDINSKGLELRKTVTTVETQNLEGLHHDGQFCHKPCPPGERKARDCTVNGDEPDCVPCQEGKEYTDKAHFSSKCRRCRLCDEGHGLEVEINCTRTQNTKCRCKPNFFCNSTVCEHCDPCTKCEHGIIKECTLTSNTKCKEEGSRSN
Procedure: (§1) A soluble DNA19355 polypeptide was also prepared by expressing the ECD in E. coli cells (as described in Example 3 above). The soluble DNA19355 ECD molecule was then labeled with ¹²⁵I. For comparison, immunoadhesin constructs were also made of the following TNF receptor family members: CD95, DR4, DR5, TNFR1, TNFR2, and Apo-3. CD95, DR4, DR5, TNFR1, TNFR2, and Apo-3 immunoadhesins were prepared by fusing each receptor's ECD to the hinge and Fc portion of human IgG, as described previously for TNFR1 [Ashkenazi et al., Proc. Natl. Acad. Sci., 88:10535-10539 (1991)]. The respective TNF receptor family members are described (and relevant references cited) in the Background of the Invention section.
(§2) For the co-precipitation assay, each immunoadhesin (5 microgram) was incubated with ¹²⁵I-labeled soluble DNA19355 polypeptide (1 microgram) for 1 hour at 24° C., followed by protein A-sepharose for 30 minutes on ice. The reaction mixtures were spun down and washed several times in PBS, boiled in SDS-PAGE buffer containing 20 mM dithiothreitol and then resolved by SDS-PAGE and autoradiography.

[3] = biological target: T3, DR4 immunoadhesin (DR4 ECD fused to hinge and Fc portion of human IgG) (human, UniProt O00220 24-239, limits assumed); assay: as above
T3 construct: extracellular domain; not shown: hinge and Fc portion of human IgG, as described for TNFR1 in Ashkenazi et al. 1991
T3 sequence (looked up): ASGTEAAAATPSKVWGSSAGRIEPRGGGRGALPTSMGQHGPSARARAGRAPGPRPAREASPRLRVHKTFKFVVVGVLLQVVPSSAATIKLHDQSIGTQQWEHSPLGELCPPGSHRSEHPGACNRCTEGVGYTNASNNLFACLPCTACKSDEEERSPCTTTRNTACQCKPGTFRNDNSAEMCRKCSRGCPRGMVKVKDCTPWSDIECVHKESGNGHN
Procedure: as §1, §2

[4] = biological target: T4, DR5 immunoadhesin (DR5 ECD fused to hinge and Fc portion of human IgG) (human, UniProt O14763 56-210, limits assumed); assay: as above
T4 construct: extracellular domain; also called Apo-2; not shown: hinge and Fc portion of human IgG, as described for TNFR1 in Ashkenazi et al. 1991
Procedure: as §1, §2

[5] = biological target: T5, TNFR1 immunoadhesin (TNFR1 ECD fused to hinge and Fc portion of human IgG) (human, UniProt P19438 30-211, limits assumed); assay: as above
T5 construct: extracellular domain; also called TNFR1-IgG; not shown: hinge and Fc portion of human IgG, as described in Ashkenazi et al. 1991
T5 sequence (looked up): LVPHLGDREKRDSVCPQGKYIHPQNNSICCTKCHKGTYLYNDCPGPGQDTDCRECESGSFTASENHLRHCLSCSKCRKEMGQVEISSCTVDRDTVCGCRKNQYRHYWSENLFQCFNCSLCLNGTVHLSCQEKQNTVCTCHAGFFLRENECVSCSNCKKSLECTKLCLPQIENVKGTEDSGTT
Procedure: as §1, §2

[6] = biological target: T6, TNFR2 immunoadhesin (TNFR2 ECD fused to hinge and Fc portion of human IgG) (human, UniProt P20333 23-257, limits assumed); assay: as above
T6 construct: extracellular domain; not shown: hinge and Fc portion of human IgG, as described for TNFR1 in Ashkenazi et al. 1991
T6 sequence (looked up): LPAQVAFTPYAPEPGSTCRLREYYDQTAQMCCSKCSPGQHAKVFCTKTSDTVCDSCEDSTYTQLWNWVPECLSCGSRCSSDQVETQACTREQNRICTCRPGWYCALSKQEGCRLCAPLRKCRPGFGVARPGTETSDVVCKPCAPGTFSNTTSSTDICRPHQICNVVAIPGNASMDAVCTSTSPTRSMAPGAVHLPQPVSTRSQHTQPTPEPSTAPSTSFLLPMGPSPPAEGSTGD
Procedure: as §1, §2

[7] = biological target: T7, Apo-3 immunoadhesin (Apo-3 ECD fused to hinge and Fc portion of human IgG) (human, UniProt Q93038 25-199); assay: as above
T7 construct: extracellular domain; also called DR3; wsl-1; not shown: hinge and Fc portion of human IgG, as described for TNFR1 in Ashkenazi et al. 1991
T7 sequence (looked up): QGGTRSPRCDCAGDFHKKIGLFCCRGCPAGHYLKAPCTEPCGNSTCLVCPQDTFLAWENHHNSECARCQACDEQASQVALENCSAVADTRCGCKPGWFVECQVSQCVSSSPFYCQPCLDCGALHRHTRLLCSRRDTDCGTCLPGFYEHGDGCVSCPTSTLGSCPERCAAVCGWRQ
Procedure: as §1, §2

[8] = biological target: T5, TNFR1 immunoadhesin (TNFR1 ECD fused to …); assay: FACS on HUVEC cells (endogenous DNA19355 transcripts)
Procedure: The DNA19355 polypeptide was identified in a human umbilical vein endothelial cell (HUVEC) library, and the DNA19355 polypeptide transcripts are readily detectable in HUVEC by RT-PCR (data not shown). […] HUVEC cells were purchased from Cell Systems (Kirkland, Wash.) and grown in a 50:50 mix of Ham's F12 and Low Glucose DMEM media containing 10% fetal bovine serum, 2 mM L-glutamine, 10 mM Hepes, and 10 ng/ml basic FGF. Cells were FACS sorted with PBS, hGITR-IgG, TNFR1-IgG or Fas-IgG as a primary antibody and goat anti-human F(ab′)2 conjugated to phycoerythrin (CalTag, Burlingame, Calif.).

B1: soluble DNA19355 polypeptide (His10-tagged extracellular region, amino acids 52 to 177, expressed in E. coli) (ligand)
chain: MGHHHHHHHHHHSSGHIDDDDKHMETAKEPCMAKFGPLPSKWQMASSEPPCVNKVSDWKLEILQNGLYLIYGQVAPNANYNDVAPFEVRLYKNKDMIQTLTNKSKIQNVGGTYELHVGDTIDLIFNSEHQVLKNNTYWGIILLANPQFIS
modifications: 125I-labeled (radioiodinated) in the co-precipitation assay
notes: also called soluble DNA19355 ECD molecule; radioiodinated soluble DNA19355 polypeptide
**Q.** With B1 as the binder, how does the “secreted TNF-alpha levels from primary human T cells (ELISA of culture supernatants)” value [1] read?
**A.** ~20 fold

**Q.** Does B1 bind [2]?
**A.** no binding

**Q.** Does B1 bind [3]?
**A.** no binding

**Q.** Does B1 bind [4]?
**A.** no binding

**Q.** Does B1 bind [5]?
**A.** no binding

**Q.** Does B1 bind [6]?
**A.** no binding

**Q.** Does B1 bind [7]?
**A.** no binding

B2: full length DNA19355 polypeptide on cells (ligand)
chain: MCLSHLENMPLSHSRTQGAQRSSWKLWLFCSIVMLLFLCSFSWLIFIFLQLETAKEPCMAKFGPLPSKWQMASSEPPCVNKVSDWKLEILQNGLYLIYGQVAPNANYNDVAPFEVRLYKNKDMIQTLTNKSKIQNVGGTYELHVGDTIDLIFNSEHQVLKNNTYWGIILLANPQFIS
notes: also called full-length DNA19355 protein; GLITTER
**Q.** Does B2 bind [8]?
**A.** no binding
